{"source": "patent US7459439B2", "about": "“Granulysin peptides and methods of use thereof” (The Regents of the University of California, priority 2003, dated 2008)", "key": {"[1]": {"tested_on": "IL-12 production by monocytes", "test": "Inhibition of IL-12 production by monocytes", "format": "cell-based", "conditions": "FIG. 4a"}, "[2]": {"tested_on": "TNF-α production by monocytes", "test": "Inhibition of TNF-α production by monocytes", "format": "cell-based", "conditions": "FIG. 4b"}, "[3]": {"tested_on": "Propionibacterium acnes", "test": "Killing of / antimicrobial activity against P. acnes", "conditions": "FIG. 1-3", "from_the_text": "The susceptibility of a particular microbe or virus to killing or inhibition by granulysins may be determined by in vitro testing, as detailed in the experimental section. Typically a culture of the microbe is combined with granulysins at varying concentrations for a period of time sufficient to allow the protein to act, usually ranging from about one hour to one day. The viable microbes are then counted, and the level of killing determined."}, "[4]": {"tested_on": "bacteria, parasites and fungi", "test": "Range of antimicrobial activity of granulysin", "format": "cell-based", "conditions": "experiments performed in applicant's laboratory", "description": "Granulysin is a 9 kDa basic (arginine-rich) protein and is a member of a larger group of proteins, referred to as saposin-like proteins (sphingolipid activator protein like protein=SAPLIP). This family has been highly conserved for almost a billion years, from amoebas to humans. […] This family includes NK-lysin, isolated from pig intestines, and amoebapores, used by amoebas to kill bacterial prey. […] We have synthesized a shorter granulysin peptide 20 amino acid in length and tested for antimicrobial activity. Further modification of this peptide was done by substituting a more hydrophobic amino acid residue, tryptophan at position 44, and tested for antimicrobial activity."}, "[5]": {"tested_on": "bacterial membranes", "conditions": "Ernst et al. (2000); cited from earlier work"}, "[6]": {"tested_on": "M. tuberculosis", "conditions": "cited from earlier work"}}, "data": [{"molecule": "granulysin peptide #31-50(W44): Modified 20 amino acid granulysin peptide 31-50 with tryptophan substituted at position 44; probably SEQ ID NO:3 TRVSRTGRSRWRDWSRNFMR", "values": [{"measurement": "inhibition of IL-12 production by monocytes", "setting": "[1]", "result": "able to inhibit IL-12"}, {"measurement": "inhibition of TNF-α production by monocytes", "setting": "[2]", "result": "able to inhibit"}]}, {"molecule": "granulysin peptide #31-50: Synthetic peptide of residues 31-50 of human granulysin, SEQ ID NO:2 (TRVCRTGRSRWRDVCRNFMR) (TRVCRTGRSRWRDVCRNFMR; H. sapiens)", "values": [{"measurement": "killing of P. acnes / antimicrobial activity against P. acnes", "setting": "[3]", "result": "effective at killing P. acnes"}]}, {"molecule": "granulysin: 9 kDa arginine-rich protein, late T cell activation marker, member of saposin-like proteins (protein, H. sapiens) GRDYRTCLTIVQKLKKMVDKPTQRSVSNAATRVCRTGRSRWRDVCRNFMRRYQSRVIQGLVAGETAQQICEDLR", "values": [{"measurement": "range of antimicrobial activity", "setting": "[4]", "result": "wide range of antimicrobial activity against bacteria, parasites and fungi"}, {"measurement": "killing of P. acnes / antimicrobial activity against P. acnes", "setting": "[3]", "result": "effective at killing Propionibacterium acnes"}, {"measurement": "alteration of bacterial membranes", "setting": "[5]", "result": "increasing their permeability, inducing lesions on the surface of bacteria and separation of the cell wall and membranes from the cytoplasm"}, {"measurement": "effect on M. tuberculosis by electron microscopy", "setting": "[6]", "result": "trigger fluid accumulation in the periplasm of M. tuberculosis"}]}]}
